The target of assay [1] is T1, human CD94 (human, UniProt Q13241 1-179).
T1 construct: whole, on cells; Endogenous CD94 on primary cells (healthy-donor PBMC NK cells, CLPD-NK and T-LGLL patient cells), where it pairs with NKG2A or NKG2C; also called KLRD1; Natural killer cells antigen CD94
T1 sequence (looked up): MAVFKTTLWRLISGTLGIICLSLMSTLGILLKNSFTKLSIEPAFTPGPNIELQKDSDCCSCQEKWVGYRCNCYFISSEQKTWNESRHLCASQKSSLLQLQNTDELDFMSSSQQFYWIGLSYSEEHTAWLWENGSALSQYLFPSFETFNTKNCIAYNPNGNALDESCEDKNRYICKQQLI
The experiment in a line: HLA-E tetramer blocking on healthy-donor PBMCs, flow cytometry; competitor HLA-E tetramer. As for the experimental part:
(§1) Healthy donor PBMCs were seeded in 96-well plates at a density of 100,000 cells per well, incubated with human Fc block (Biolegend) and cell viability dye (Thermo Fisher) for 30 minutes on ice and protected from light. The cells were washed once with FACS buffer (PBS with 2% IgG low FBS). anti-CD94 antibodies at EC80 concentrations were incubated with cells for 30 minutes on ice and protected from light. After incubation with the anti-CD94 antibodies, the cells were washed and incubated with HLA-E tetramer PE (Creative Biolabs), anti-CD3 pacific blue-labelled, and anti-CD56 FITC-labelled antibodies (Biolegend) for 30 minutes on ice and protected from light. The cells then received a final wash in FACS buffer before quantification on the Cytoflex (Beckman Coulter). All data acquisition and fluorescence compensation were performed using CytoFlex (Beckman Coulter, Atlanta, Ga.). Data analysis was performed using FlowJo software. NK cells were identified through gating on lymphocytes on the forward and side scatter, followed by doublet and dead cell exclusion, and gated on the CD3−CD56+ population. HLA-E expression was then quantified on the CD3−CD56+NK cell population. Percent blocking was calculated as 100−((percent HLA-E positive for anti-CD94 antibody)/(percent HLA-E positive for isotype)*100).
Healthy donor PBMCs were incubated with anti-CD94 antibodies. PE labeled HLA-E tetramer was then incubated with cells and antibody mixture and detected by flow cytometry.
Percent blocking was calculated as 100−((percent HLA-E positive for anti-CD94 antibody)/(percent HLA-E positive for isotype)*100). If an antibody blocked more than 20% of HLA-E binding, it was considered a ligand-blocking antibody.
On the technique in general: In flow cytometry, cells or beads pass a laser one at a time.

The target in assay [2] is T1, human CD94. The experiment in a line: flow cytometry titration (100 nM to 0.046 nM) on healthy-donor PBMCs, CD3-CD56bright NK cells; column 'Affinity on human NK cells (nM)'.
In the next assay the target is T2, cynomolgus CD94 (cynomolgus monkey).
T2 construct: whole, on cells; The construct expressed in HEK293 cells is not described further; also called cyno CD94; cynomolgus monkey CD94
The experiment in a line: flow cytometry on HEK293 cells overexpressing cynomolgus CD94; unconjugated antibody in a dilution series, Alexa Fluor 647 anti-human secondary antibody. As for the experimental part:
For human NK cell binding, PBMCs were freshly isolated from healthy donors and incubated with unconjugated antibodies in a dilution series from 100 nM to 0.046 nM. Secondary anti-human antibody labeled with Alexa Fluor 647 was used to detect binding on CD3−CD56bright NK cells. For cynomolgus CD94 binding, HEK293 cells overexpressing cynomolgus CD94 were incubated with unconjugated antibodies in a dilution series from 100 nM to 0.046 nM. Secondary anti-human antibody labeled with Alexa Fluor 647 was used to detect binding on the cells.

For assay [3], the target named is T1, human CD94. The experiment in a line: cell-based or functional assay.
For assay [4], the target named is T1, human CD94. The experiment in a line: table column 'HLA-E blocking'; flow cytometry on NK cells of healthy donor PBMCs, antibody at saturating concentration, blocked ligand PE labeled HLA-E tetramer; percent blocking = 100-((percent HLA-E positive with antibody)/(percent HLA-E positive with isotype)*100). As for the experimental part:
FIGS. 4A & 4B show the results of HLA-E tetramer blocking assays performed with anti-CD94 and commercially available anti-CD94 antibodies using flow cytometry. Healthy donor PBMCs were incubated with anti-CD94 antibodies. PE labeled HLA-E tetramer was then incubated with the cell and antibody mixture, and detected using flow cytometry. For HP-3B1, 131412, 12K45, DX22, 1M4 and 1E4, 2.5 μl of HLA-E tetramer reagent was used, while 5 μl was used for 18H3 and HP-3D9. Saturating concentrations of each antibody was used in this assay. The percent blocking was calculated as 100−((percent HLA-E positive for anti-CD94 antibody)/(percent HLA-E positive for isotype)*100).
as §1

Residue numbers refer to the chain shown, from its start.

B1: anti-CD94 antibody ATX-125 (antibody, human IgG1, V domains shown)
VH: QVQLQQSGPGLVKPSETLSLTCTVSGGSISSIIYYWGWIRQPPGKGLEWIGSIYYSGSTYYNPSLKSRVTISVDTSKNQFSLNLSSVTAADTAVYYCARLPLTGEFAFDIWGQGTMVTVSS
VL: EIVLTQSPATLSLSPGERATLSCRASQSVSTYLAWFQQKPGQAPRLLIYGASSRATGIPDRFSGSGSGTDFTLTISRLEPEDFAVYYCQQYGSSPITFGQGTRLEIK
Usually EC50 stands for the concentration that produces a half-maximal response. As usually defined, the EC50 (read off the curve) is the concentration that produces a half-maximal response. A high value points to a need for much substance. Take B1: the “percent HLA-E blocking” value with human CD94 [1] came out at 11%. In the assay with human CD94 [2], this molecule returned a concentration for a half-maximal effect (EC50) of 4.63 nM. Also, the “EC50 (read off the curve)” value with cynomolgus CD94 is approximately 2 nM.

B2: anti-CD94 antibody ATX-124 (antibody, human IgG1, V domains shown)
VH: QVQLVQSGAEVKKPGASVKVSCKASGYTFTSYGISWVRQAPGQGLEWMGWISAYNGNTNYAQKLQGRVTMTTDTSTSTAYMEVRSLRSDDTAVYYCARDRGRFGELFFDHWGQGTLVTVSS
VL: DIVMTQSPSSVSASVGDRVTITCRASQGISNYLAWYQQKPGKAPKLLIYAASSLQSGVPSRFSGSGSGTDFTLTISSLQPEDFATYYCLQHNSYPFTFGPGTKVDIK
For B2, the “percent HLA-E blocking” value with human CD94 [1] came to 18%. Besides, in the assay with human CD94 [2], the EC50 came out at 10 nM.

B3: anti-CD94 antibody ATX-122 (antibody, V domains shown)
VH: B2 VH with V18L, I34V, M48V, A53P, Q62H, K63N, T69A, V83L, T91M, H110Y
VL: B2 VL
notes: Detected with an anti-human secondary antibody
Turning to B3, the “percent HLA-E blocking” value with human CD94 [1] worked out at 0%. Besides, the EC50 with human CD94 [2] is 27 nM.

B4: anti-CD94 antibody ATX-123 (antibody, human IgG1, V domains shown)
VH: B2 VH with L64F, S77N, V83L, F107L, F108S, H110Y
VL: B2 VL
For the molecule B4, the “percent HLA-E blocking” value with human CD94 [1] was 39%. For the same molecule, a half-maximal effect with human CD94 [2] (EC50) was put at 1.12 nM.

B5: anti-CD94 antibody ATX-128 (antibody, V domains shown)
VH: QVQLQESGGGLVQPGGSLKLSCAASGFTFSGSTIQWVRQASGKGLEWVGRIRSKANSYATASAASVKGRFTISRDDSKNMAYLQMNSLKTEDTAVYYCTREGLGYYNVGYYYFYMDVWGKGTTVTVSS
VL: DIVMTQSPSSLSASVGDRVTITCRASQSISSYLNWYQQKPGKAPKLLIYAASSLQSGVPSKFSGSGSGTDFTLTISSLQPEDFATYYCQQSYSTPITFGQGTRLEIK
Regarding B5, the “percent HLA-E blocking” value with human CD94 [1] is 10%. Further, in the assay with human CD94 [2], a half-maximal effect (EC50) was put at 0.32 nM.

B6: anti-CD94 antibody ATX-126 (antibody, human IgG1, V domains shown)
VH: QVQLQESGGGLVQPGGSLKLSCAASGFTFSSYSMNWVRQAPGKGLEWVSSISTSSNFIYYADSVKGRFTISRDNSKNTLYLQMNSLRAEDTAVYYCVRDMGPFYSFYYMDVWGNGTTVTVSS
VL: DIQVTQSPATLSLSPGERATLSCRASQSVSSSYLAWYQQKPGQAPRLLIYGASNRATGIPARFSGSGSGTDFTLTISSLQPEDFATYYCLQHNSYPPTFGGGTKVDIK
Regarding B6, the “percent HLA-E blocking” value in the assay with human CD94 [1] stood at 0%. In addition, the EC50 with human CD94 [2] was 2.52 nM. Moreover, the “EC50 (read off the curve)” value in the assay with cynomolgus CD94 is approximately 2 nM.

B7: 18H3-KIF (antibody, V domains shown)
VH: EVQLVQSGAEVKKPGESLKISCKGSGYRFTSYWIGWVRQMPGKGLEWMGIIYPGDSDTRYSPSFQGQVIISADKSITTAFLQWSSLKASDTAMYYCARPFDYGGSPGYFDYWGQGTLVTVSS
VL: DIQMTQSPSTLSASVGDRVTITCRASQSIRSWLAWYQQKPGKAPKLLIYKASSLESGVPSRFSGSGSGTEFTLTISSLQPDDFATYYCQQYNTFWTFGQGTKVEIK
In the case of B7, in the assay with human CD94 [3], the “IC50 of CLPD-NK leukemic cell depletion, ADCC assay with CLPD-NK patient PBMCs” value was found to be 0.059 µg/mL and the “IC50 of NK cell depletion, ADCC assay with healthy donor PBMCs” value was 0.02 µg/mL.

B8: anti-CD94 antibody ATX-129 (antibody, human IgG1, V domains shown)
VH: EVQLVQSGGGLVQPGGSLRLSCAASGFTFSSYWMSWVRQAPGKGLEWVANIKQDGSAKYYVDSVKGRFTISRDNAKNSLYLQMNSLRAEDTAVYYCARGYYFDYWGQGTLVTVSS
VL: EIVLTQSPSTLSASVGDRVTITCRVSQGISSYLNWYRQKPGKVPKLLIYAASSLQSGVPSRFSGSGSGTDFTLTISSLQPEDFATYYCQQSYSTPITFGQGTRLEIK
Regarding B8, in the assay with human CD94 [1], the “percent HLA-E blocking” value was found to be 96%. For the same molecule, a half-maximal effect in the assay with human CD94 [2] (EC50) was put at 2.8 nM.

B9: anti-CD94 antibody 1M4 (antibody, V domains shown)
VH: QLVESGGGLVQPGGSLRLACAASGFTFSNYAMNWVRQAPGKGLEWVSVISGSGDTTYCADSVKGRFTISRDNSKNTLHLQLNSLRAEDTAVYYCAKNCYGSGSYYNHFDYWGQGTLVTVSS
VL: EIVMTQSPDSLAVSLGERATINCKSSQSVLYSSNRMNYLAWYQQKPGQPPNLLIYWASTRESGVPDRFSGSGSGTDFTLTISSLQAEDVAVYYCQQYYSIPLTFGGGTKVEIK
Take B9: the HLA-E blocking in the assay with human CD94 [4] was 0%.

B10: anti-CD94 antibody 1E4 (antibody, V domains shown)
VH: QVTLRESGPALVKPTQTLTLTCTFSGFSLSTSDLCVSWIRQPPGKALEWLALIDWNDDKYYSTSLQTRLTISKDTSKNQVVLTMTNMDPVDTATYYCARTIAAAGPYDAFDIWGQGTMVTVSS
VL: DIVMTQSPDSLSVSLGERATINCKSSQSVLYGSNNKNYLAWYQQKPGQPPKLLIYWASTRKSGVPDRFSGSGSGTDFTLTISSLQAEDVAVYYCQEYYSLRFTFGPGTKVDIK
notes: Hybridoma antibody from ATX-Gx Alloy transgenic mice; also called fucosylated 1E4
In the assay with human CD94 [4], B10 displayed an HLA-E blocking of 0%.

B11: anti-CD94 antibody ATX-127 (antibody, human IgG1, V domains shown)
VH: QVQLQQSGPGLVKPSGTLSLTCAVSGGSISSRYWWTWVRQPPGKGLEWIGEIYHSGTTNYNPSLESRVTISVDKSKNQFSLKVSSVTAADTAVYYCARSPNWGYYYYYMDVWGKGTTVTVSS
VL: EIVMTQSPATLSVSPGERATLSCRASQSVSSSYLAWYQQKPGQAPRLLIYGASSRATGIPDRFSGSGSGTDFTLTISRLESEDFAVYYCQQYGRSLTFGGGTKVEIK
With B11, in the assay with human CD94 [1], the “percent HLA-E blocking” value was 77%. In addition, in the assay with human CD94 [2], the EC50 worked out at 0.31 nM.

The values are drawn from US20220127365A1 (DREN BIO, published 2022).
